From US20240148901A1

Molecular target: Recombinant gp120JR-FL (MyBioSource) (HIV)
Experiment: modified gp120 ELISA: gp120JR-FL coated plate, NanoLuc luminescence read-out

Question: How did the sensitivity of the gp120 ELISA turn out when “secreted PGT121-NanoLuc, purified (antibody)” was run?
Answer: 500 pg/mL
